Source: patent US20260049138A1 (Chugai, published 2026)

The binders below were run against T1, CD3ε homodimer protein (human, UniProt P07766 23-126, limits assumed, sulfo-tag or biotin label in the ECL assays; amine-coupled to the chip in SPR) (assay: SPR Biacore T200; CD3ε homodimer on CM4 chip;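 also: Single-residue variant antibodies injected as analyte over CD3ε homodimer immobilized by amine coupling, run at 25 °C in HBS-EP+ buffer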).
T1 construct: also called human CD3ε homodimer protein; CD3 (CD3ε)
T1 sequence (P07766 23-126 limits assumed): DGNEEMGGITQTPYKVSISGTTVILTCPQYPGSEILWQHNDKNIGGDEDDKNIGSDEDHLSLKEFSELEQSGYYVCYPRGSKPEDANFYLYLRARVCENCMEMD

Binder | ratio of amounts bound Z=Y/X (altered form / CE115HA000)
CE115HA000 A56N one-arm antibody (antibody, human IgG1, kappa, L234A L235A, N297A, name in Kabat numbering) heavy: QVQLVESGGGVVQPGRSLRLSCAASGFTFSNAWMHWVRQAPGKGLEWVAQIKAKSNNYNTYYAESVKGRFTISRDDSKNSLYLQMNSLKTEDTAVYYCRYVHYGAYYGVDAWGQGTTVTVSSASTKGPSVFPLAPSSKSTSGGTAALGCLVKDYFPEPVTVSWNSGALTSGVHTFPAVLQSSGLYSLSSVVTVPSSSLGTQTYICNVNHKPSNTKVDKKVEPKSCDKTHTCPPCPAPEAAGGPSVFLFPPKPKDTLMISRTPEVTCVVVDVSHEDPEVKFNWYVDGVEVHNAKTKPREEQYASTYRVVSVLTVLHQDWLNGKEYKCKVSNKALPAPIEKTISKAKGQPREPQVYTLPPSRCELTKNQVSLSCAVKGFYPSDIAVEWESNGQPENNYKTTPPVLDSDGSFFLVSKLTVDKSRWQQGNVFSCSVMHEALHNHYTQKSLSLSPDYKDDDDK EPKSSDKTHTCPPCPAPELLGGPSVFLFPPKPKDTLMISRTPEVTCVVVDVSHEDPEVKFNWYVDGVEVHNAKTKPREEQYNSTYRVVSVLTVLHQDWLNGKEYKCKVSNKALPAPIEKTISKAKGQPREPQVCTLPPSRDELTKNQVSLWCLVKGFYPSDIAVEWESNGQPENNYKTTPPVLDSDGSFFLYSKLTVDKSRWQQGNVFSCSVMHEALHNRYTQKSLSLSP light: DIVMTQSPLSLPVTPGEPASISCRSSQSLVHSNRNTYLHWYQQKPGQAPRLLIYKVSNRFSGVPDRFSGSGSGTDFTLKISRVEAEDVGVYYCGQGTQVPYTFGQGTKLEIKRTVAAPSVFIFPPSDEQLKSGTASVVCLLNNFYPREAKVQWKVDNALQSGNSQESVTEQDSKDSTYSLSSTLTLSKADYEKHKVYACEVTHQGLSSPVTKSFNRGEC | 0.67
CE115HA000 A99D one-arm antibody (antibody, human IgG1, kappa, L234A L235A, N297A, name in Kabat numbering) heavy: QVQLVESGGGVVQPGRSLRLSCAASGFTFSNAWMHWVRQAPGKGLEWVAQIKAKSNNYATYYAESVKGRFTISRDDSKNSLYLQMNSLKTEDTAVYYCRYVHYGDYYGVDAWGQGTTVTVSSASTKGPSVFPLAPSSKSTSGGTAALGCLVKDYFPEPVTVSWNSGALTSGVHTFPAVLQSSGLYSLSSVVTVPSSSLGTQTYICNVNHKPSNTKVDKKVEPKSCDKTHTCPPCPAPEAAGGPSVFLFPPKPKDTLMISRTPEVTCVVVDVSHEDPEVKFNWYVDGVEVHNAKTKPREEQYASTYRVVSVLTVLHQDWLNGKEYKCKVSNKALPAPIEKTISKAKGQPREPQVYTLPPSRCELTKNQVSLSCAVKGFYPSDIAVEWESNGQPENNYKTTPPVLDSDGSFFLVSKLTVDKSRWQQGNVFSCSVMHEALHNHYTQKSLSLSPDYKDDDDK EPKSSDKTHTCPPCPAPELLGGPSVFLFPPKPKDTLMISRTPEVTCVVVDVSHEDPEVKFNWYVDGVEVHNAKTKPREEQYNSTYRVVSVLTVLHQDWLNGKEYKCKVSNKALPAPIEKTISKAKGQPREPQVCTLPPSRDELTKNQVSLWCLVKGFYPSDIAVEWESNGQPENNYKTTPPVLDSDGSFFLYSKLTVDKSRWQQGNVFSCSVMHEALHNRYTQKSLSLSP light: DIVMTQSPLSLPVTPGEPASISCRSSQSLVHSNRNTYLHWYQQKPGQAPRLLIYKVSNRFSGVPDRFSGSGSGTDFTLKISRVEAEDVGVYYCGQGTQVPYTFGQGTKLEIKRTVAAPSVFIFPPSDEQLKSGTASVVCLLNNFYPREAKVQWKVDNALQSGNSQESVTEQDSKDSTYSLSSTLTLSKADYEKHKVYACEVTHQGLSSPVTKSFNRGEC | 0.28
CE115HA000 A56Y one-arm antibody (antibody, human IgG1, kappa, L234A L235A, N297A, name in Kabat numbering) heavy: QVQLVESGGGVVQPGRSLRLSCAASGFTFSNAWMHWVRQAPGKGLEWVAQIKAKSNNYYTYYAESVKGRFTISRDDSKNSLYLQMNSLKTEDTAVYYCRYVHYGAYYGVDAWGQGTTVTVSSASTKGPSVFPLAPSSKSTSGGTAALGCLVKDYFPEPVTVSWNSGALTSGVHTFPAVLQSSGLYSLSSVVTVPSSSLGTQTYICNVNHKPSNTKVDKKVEPKSCDKTHTCPPCPAPEAAGGPSVFLFPPKPKDTLMISRTPEVTCVVVDVSHEDPEVKFNWYVDGVEVHNAKTKPREEQYASTYRVVSVLTVLHQDWLNGKEYKCKVSNKALPAPIEKTISKAKGQPREPQVYTLPPSRCELTKNQVSLSCAVKGFYPSDIAVEWESNGQPENNYKTTPPVLDSDGSFFLVSKLTVDKSRWQQGNVFSCSVMHEALHNHYTQKSLSLSPDYKDDDDK EPKSSDKTHTCPPCPAPELLGGPSVFLFPPKPKDTLMISRTPEVTCVVVDVSHEDPEVKFNWYVDGVEVHNAKTKPREEQYNSTYRVVSVLTVLHQDWLNGKEYKCKVSNKALPAPIEKTISKAKGQPREPQVCTLPPSRDELTKNQVSLWCLVKGFYPSDIAVEWESNGQPENNYKTTPPVLDSDGSFFLYSKLTVDKSRWQQGNVFSCSVMHEALHNRYTQKSLSLSP light: DIVMTQSPLSLPVTPGEPASISCRSSQSLVHSNRNTYLHWYQQKPGQAPRLLIYKVSNRFSGVPDRFSGSGSGTDFTLKISRVEAEDVGVYYCGQGTQVPYTFGQGTKLEIKRTVAAPSVFIFPPSDEQLKSGTASVVCLLNNFYPREAKVQWKVDNALQSGNSQESVTEQDSKDSTYSLSSTLTLSKADYEKHKVYACEVTHQGLSSPVTKSFNRGEC | 0.66
CE115HA000 A60D one-arm antibody (antibody, human IgG1, kappa, L234A L235A, N297A, name in Kabat numbering) heavy: QVQLVESGGGVVQPGRSLRLSCAASGFTFSNAWMHWVRQAPGKGLEWVAQIKAKSNNYATYYDESVKGRFTISRDDSKNSLYLQMNSLKTEDTAVYYCRYVHYGAYYGVDAWGQGTTVTVSSASTKGPSVFPLAPSSKSTSGGTAALGCLVKDYFPEPVTVSWNSGALTSGVHTFPAVLQSSGLYSLSSVVTVPSSSLGTQTYICNVNHKPSNTKVDKKVEPKSCDKTHTCPPCPAPEAAGGPSVFLFPPKPKDTLMISRTPEVTCVVVDVSHEDPEVKFNWYVDGVEVHNAKTKPREEQYASTYRVVSVLTVLHQDWLNGKEYKCKVSNKALPAPIEKTISKAKGQPREPQVYTLPPSRCELTKNQVSLSCAVKGFYPSDIAVEWESNGQPENNYKTTPPVLDSDGSFFLVSKLTVDKSRWQQGNVFSCSVMHEALHNHYTQKSLSLSPDYKDDDDK EPKSSDKTHTCPPCPAPELLGGPSVFLFPPKPKDTLMISRTPEVTCVVVDVSHEDPEVKFNWYVDGVEVHNAKTKPREEQYNSTYRVVSVLTVLHQDWLNGKEYKCKVSNKALPAPIEKTISKAKGQPREPQVCTLPPSRDELTKNQVSLWCLVKGFYPSDIAVEWESNGQPENNYKTTPPVLDSDGSFFLYSKLTVDKSRWQQGNVFSCSVMHEALHNRYTQKSLSLSP light: DIVMTQSPLSLPVTPGEPASISCRSSQSLVHSNRNTYLHWYQQKPGQAPRLLIYKVSNRFSGVPDRFSGSGSGTDFTLKISRVEAEDVGVYYCGQGTQVPYTFGQGTKLEIKRTVAAPSVFIFPPSDEQLKSGTASVVCLLNNFYPREAKVQWKVDNALQSGNSQESVTEQDSKDSTYSLSSTLTLSKADYEKHKVYACEVTHQGLSSPVTKSFNRGEC | 0.99
CE115HA000 A56Q one-arm antibody (antibody, human IgG1, kappa, L234A L235A, N297A, name in Kabat numbering) heavy: QVQLVESGGGVVQPGRSLRLSCAASGFTFSNAWMHWVRQAPGKGLEWVAQIKAKSNNYQTYYAESVKGRFTISRDDSKNSLYLQMNSLKTEDTAVYYCRYVHYGAYYGVDAWGQGTTVTVSSASTKGPSVFPLAPSSKSTSGGTAALGCLVKDYFPEPVTVSWNSGALTSGVHTFPAVLQSSGLYSLSSVVTVPSSSLGTQTYICNVNHKPSNTKVDKKVEPKSCDKTHTCPPCPAPEAAGGPSVFLFPPKPKDTLMISRTPEVTCVVVDVSHEDPEVKFNWYVDGVEVHNAKTKPREEQYASTYRVVSVLTVLHQDWLNGKEYKCKVSNKALPAPIEKTISKAKGQPREPQVYTLPPSRCELTKNQVSLSCAVKGFYPSDIAVEWESNGQPENNYKTTPPVLDSDGSFFLVSKLTVDKSRWQQGNVFSCSVMHEALHNHYTQKSLSLSPDYKDDDDK EPKSSDKTHTCPPCPAPELLGGPSVFLFPPKPKDTLMISRTPEVTCVVVDVSHEDPEVKFNWYVDGVEVHNAKTKPREEQYNSTYRVVSVLTVLHQDWLNGKEYKCKVSNKALPAPIEKTISKAKGQPREPQVCTLPPSRDELTKNQVSLWCLVKGFYPSDIAVEWESNGQPENNYKTTPPVLDSDGSFFLYSKLTVDKSRWQQGNVFSCSVMHEALHNRYTQKSLSLSP light: DIVMTQSPLSLPVTPGEPASISCRSSQSLVHSNRNTYLHWYQQKPGQAPRLLIYKVSNRFSGVPDRFSGSGSGTDFTLKISRVEAEDVGVYYCGQGTQVPYTFGQGTKLEIKRTVAAPSVFIFPPSDEQLKSGTASVVCLLNNFYPREAKVQWKVDNALQSGNSQESVTEQDSKDSTYSLSSTLTLSKADYEKHKVYACEVTHQGLSSPVTKSFNRGEC | 0.76
CE115HA000 A60E one-arm antibody (antibody, human IgG1, kappa, L234A L235A, N297A, name in Kabat numbering) heavy: QVQLVESGGGVVQPGRSLRLSCAASGFTFSNAWMHWVRQAPGKGLEWVAQIKAKSNNYATYYEESVKGRFTISRDDSKNSLYLQMNSLKTEDTAVYYCRYVHYGAYYGVDAWGQGTTVTVSSASTKGPSVFPLAPSSKSTSGGTAALGCLVKDYFPEPVTVSWNSGALTSGVHTFPAVLQSSGLYSLSSVVTVPSSSLGTQTYICNVNHKPSNTKVDKKVEPKSCDKTHTCPPCPAPEAAGGPSVFLFPPKPKDTLMISRTPEVTCVVVDVSHEDPEVKFNWYVDGVEVHNAKTKPREEQYASTYRVVSVLTVLHQDWLNGKEYKCKVSNKALPAPIEKTISKAKGQPREPQVYTLPPSRCELTKNQVSLSCAVKGFYPSDIAVEWESNGQPENNYKTTPPVLDSDGSFFLVSKLTVDKSRWQQGNVFSCSVMHEALHNHYTQKSLSLSPDYKDDDDK EPKSSDKTHTCPPCPAPELLGGPSVFLFPPKPKDTLMISRTPEVTCVVVDVSHEDPEVKFNWYVDGVEVHNAKTKPREEQYNSTYRVVSVLTVLHQDWLNGKEYKCKVSNKALPAPIEKTISKAKGQPREPQVCTLPPSRDELTKNQVSLWCLVKGFYPSDIAVEWESNGQPENNYKTTPPVLDSDGSFFLYSKLTVDKSRWQQGNVFSCSVMHEALHNRYTQKSLSLSP light: DIVMTQSPLSLPVTPGEPASISCRSSQSLVHSNRNTYLHWYQQKPGQAPRLLIYKVSNRFSGVPDRFSGSGSGTDFTLKISRVEAEDVGVYYCGQGTQVPYTFGQGTKLEIKRTVAAPSVFIFPPSDEQLKSGTASVVCLLNNFYPREAKVQWKVDNALQSGNSQESVTEQDSKDSTYSLSSTLTLSKADYEKHKVYACEVTHQGLSSPVTKSFNRGEC | 0.94
